How the values were obtained:
[1] = target: E2-CPP (Fam-labelled octaarginine cell-penetrating peptide with two EIAALEK units at its N-terminus); conditions: scale: LC3-II/actin ratio
[2] = target: E3-CPP (Fam-labelled octaarginine cell-penetrating peptide with three EIAALEK units at its N-terminus); conditions: scale: LC3-II/actin ratio
[3] = target: E3-CPP (Fam-labelled octaarginine cell-penetrating peptide with three EIAALEK units at its N-terminus); assay: other fluorescence titration; En-CPP (Fam) fixed at 50 nM, AIP-Kn (Tmr) added to Tmr/Fam ratios 0-2.0; PBS pH 7.0, 25 °C; excitation 495 nm, Fam fluorescence at 525 nm quenched by FRET to Tmr; Kd by fit to equation (1), with the saturation intensity Fs taken from AIP-K4/E4-CPP
[4] = target: E4-CPP (Fam-labelled octaarginine cell-penetrating peptide with four EIAALEK units at its N-terminus); conditions: scale: LC3-II/actin ratio
[5] = target: E4-CPP (Fam-labelled octaarginine cell-penetrating peptide with four EIAALEK units at its N-terminus); assay: other fluorescence titration; En-CPP (Fam) fixed at 50 nM, AIP-Kn (Tmr) added to Tmr/Fam ratios 0-2.0; PBS pH 7.0, 25 °C; excitation 495 nm, Fam fluorescence at 525 nm quenched by FRET to Tmr; Kd by fit to equation (1), with the saturation intensity Fs taken from AIP-K4/E4-CPP
[6] = test system: HeLa cells; assay: Intracellular delivery of K/E hybrids by confocal laser microscopy; type: cell-based; conditions: 10 μM equimolar AIP-Kn/En-CPP mixture, 1 h, 37 °C, conclusion from Fam/Tmr signals
Protocol: HeLa cells were cultured in DMEM supplemented with 10% heat-inactivated FBS in a 5% CO2 incubator at 37 °C. The HeLa cell line has been stocked and propagated in Dr. Masaaki Miyazawa’s laboratory.
AIP-Kn and En-CPP (n = 2, 3, and 4) were dissolved in DMSO at 10 mM each to make a stock peptide solution. The stock solution was diluted to the desired concentration using Opti-MEM. Equal volumes of the diluted AIP-Kn and En-CPP were mixed in a 1.5 mL tube for 1 h with rotation at room temperature to generate hybrids. For single-component controls (AIP-Kn or En-CPP only), equal volumes of the diluted AIP-Kn or En-CPP and Opti-MEM with DMSO, which was added instead of the stock peptide solution, were mixed in a 1.5 mL tube, and the mixture was then treated in a manner similar to that for the hybrid formation. […]
One day before peptide treatment, 1 × 10^5 cells in 2 mL of HeLa cells were seeded on a glass-bottomed dish (Matsunami Glass, Osaka, Japan) and cultured in a 5% CO2 incubator at 37 °C. […] After washing the cells, 2 mL of PBS was added and fluorescence signals from the cells were observed using a confocal laser microscope with a Plan Apo 60× oil-immersion DIC H objective (CLMS; C2si Ready; Nikon, Tokyo, Japan). Data were analyzed using NIS-Elements Advanced research software (Nikon).

Sequence of E4-CPP (Fam-labelled octaarginine cell-penetrating peptide with four EIAALEK units at its N-terminus) (peptide, as listed by the source): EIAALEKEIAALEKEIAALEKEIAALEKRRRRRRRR
Sequence of E3-CPP (Fam-labelled octaarginine cell-penetrating peptide with three EIAALEK units at its N-terminus) (peptide, as listed by the source): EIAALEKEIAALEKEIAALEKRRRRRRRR
Sequence of E2-CPP (Fam-labelled octaarginine cell-penetrating peptide with two EIAALEK units at its N-terminus) (peptide, as listed by the source): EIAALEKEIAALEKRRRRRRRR

**Q.** Which autophagy induction in HeLa cells, LC3-II/actin ratio by immunoblot, 10 μM, 3 h, relative to AIP-K3/E3-CPP [1] does the source give for “AIP-K2 (Tmr-labelled autophagy-inducing peptide with two KIAALKE units at its C-terminus)” here?
**A.** 0.08

**Q.** For “AIP-K3 (Tmr-labelled autophagy-inducing peptide with three KIAALKE units at its C-terminus)”, which autophagy induction in HeLa cells, LC3-II/actin ratio by immunoblot, 10 μM, 3 h, the reference of the ratio [2] is on record?
**A.** 1

**Q.** And the Kd [3]?
**A.** 20 nM

**Q.** What about the stoichiometry N [3] of the same substance?
**A.** 1

**Q.** How did the autophagy induction in HeLa cells, LC3-II/actin ratio by immunoblot, 10 μM, 3 h, relative to AIP-K3/E3-CPP [4] turn out when “AIP-K4 (Tmr-labelled autophagy-inducing peptide with four KIAALKE units at its C-terminus)” was run?
**A.** 0.59

**Q.** What about the Kd [5] of the same substance?
**A.** 2 nM

**Q.** What about the stoichiometry N [5] of the same substance?
**A.** 1

**Q.** How did the “intracellular delivery (translocation into cells)” value [6] turn out when “Fam-(EIAALEK)2-RRRRRRRR [E2-CPP, octaarginine modified with (EIAALEK)2 at its N-terminus, labeled with fluorescein]” was run?
**A.** alone translocates across the plasma membrane

Source: publication PMC10141234, “Adjusting Heterodimeric Coiled-Coils (K/E Zipper) to Connect Autophagy-Inducing Peptide with Cell-Penetrating Peptide” (Pharmaceutics, 2023)
